± gives the uncertainty stated by the source.
Test: protein stability index of a GFP-peptide fusion (yeast GPS) (PSI 1-4); higher = more stable; sorted into four equal gates, so the index is relative within each strain
Outline: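 Plasmids isolated from each sorting gate were PCR-amplified and Illumina-sequenced, and barcodes assigned the reads to strains. The gates, four of equal size, were set by GFP/Cherry fluorescence ratio on mid-log cultures in leucine-free medium. These cultures were yeast carrying a pooled library of tiled 17-residue yeast protein peptides fused downstream of GFP on a plasmid that also expresses Cherry. The protein stability index is the sum of every gate's read frequency times its gate number.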

Sequence | protein stability index (doa10∆) | protein stability index (pdr5∆) | protein stability index (san1∆) | protein stability index (ubr1∆)
QARTATLKYICAECSSK [RPC10] | 2.72 ± 0.12 | 2.98 ± 0.1 | 2.84 ± 0.065 | 2.79 ± 0.073
NRYAFSQPTNSTTTSLH [SMC4] | 2.44 ± 0.079 | 2.33 ± 0.052 | 2.14 ± 0.11 | 2.26 ± 0.044
VKSLLSEEKIRDYSKEI [SIR4] | 3.14 ± 0.3 | 2.48 ± 0.14 | 2.46 ± 0.14 | 
QMMQQAQQKLKQNPGLM [SRP54] | 2.83 ± 0.08 | 3.07 ± 0.082 | 3.12 ± 0.055 | 3.119 ± 0.031
LFKRDCNQMENLLESIT [YCS4] |  | 2.17 ± 0.12 |  | 2.38 ± 0.22
TDRITRLFIKPGQKMSL [BRN1] | 3.22 ± 0.11 | 2.9 ± 0.11 | 2.97 ± 0.14 | 3.17 ± 0.1
KIIELMNKIFTIFKSGE [YML103C/NUP188] | 3.01 ± 0.08 | 2.22 ± 0.083 | 1.79 ± 0.11 | 2.8 ± 0.12
TRRKRRQGRSNRRGMLA [SNF5] | 2.51 ± 0.13 | 2.71 ± 0.14 | 2.86 ± 0.11 | 2.99 ± 0.11
YGIVAMAATATDKIGRS [FAS2] | 1.64 ± 0.063 | 1.82 ± 0.06 | 1.65 ± 0.092 | 2.26 ± 0.051
HPFGHALVAGIERYPLK [RPL27A] | 2.53 ± 0.082 | 2.3 ± 0.098 | 2.49 ± 0.082 | 2.49 ± 0.062
TVTIASSLNLEDTPAND [RPB8] | 2.83 ± 0.066 | 2.81 ± 0.054 | 2.65 ± 0.06 | 2.88 ± 0.067
SFDSIDHSWFLLIGCKL [CSI1] | 1.71 ± 0.1 | 1.77 ± 0.058 | 1.72 ± 0.2 | 2.58 ± 0.05
SAKPSQIPTVSSPLGFE [SIR4] | 3.14 ± 0.064 | 2.98 ± 0.058 | 2.85 ± 0.068 | 3.03 ± 0.047
DDDISDDEEDEIEENCL [RPN4] | 3.48 ± 0.1 | 3.27 ± 0.089 | 3.14 ± 0.08 | 3.32 ± 0.1
LEASYSKSYTPRKLVLS [SMC4] | 2.31 ± 0.043 | 2.52 ± 0.059 | 2.11 ± 0.088 | 2.22 ± 0.05
RRERRLIFGTIASKMSL [RPT3] | 2.31 ± 0.051 | 2.48 ± 0.068 | 2.36 ± 0.048 | 2.45 ± 0.038
DNVDDIGEFNVSMYQNS [YDL088C/ASM4] | 3.41 ± 0.23 | 3.05 ± 0.28 | 2.94 ± 0.22 | 3.19 ± 0.23
KSCEPVSISTSVKPHVV [SIR4] | 2.6 ± 0.069 | 2.97 ± 0.077 | 2.28 ± 0.11 | 2.42 ± 0.045
SPELKAELRPLQFKSIR [RPS7A] | 2.91 ± 0.11 | 3.54 ± 0.11 | 2.61 ± 0.14 | 3.07 ± 0.12
ESSSEDDYEDQDDDDYV [IRR1] | 3.58 ± 0.16 | 3.52 ± 0.11 |  | 3.65 ± 0.16
YYLWTGKQVFSLLIKPN [RPO31] | 1.53 ± 0.21 |  |  | 1.59 ± 0.2
GYKSTVKSLRQGKSKLI [RPL30] | 1.31 ± 0.08 | 1.35 ± 0.059 | 1.4 ± 0.2 | 1.48 ± 0.061
DIEFINSLLTIVWRFIS [RPC34] |  | 2.91 ± 0.23 | 2.51 ± 0.21 | 2.12 ± 0.14
QGKSKLIIIAANTPVLR [RPL30] | 2.91 ± 0.093 | 3.08 ± 0.12 | 2.96 ± 0.065 | 2.99 ± 0.078
QEQLKNVKNDVSFNDSQ [YIL149C/MLP2] | 3.27 ± 0.061 | 3.5 ± 0.066 | 3.08 ± 0.083 | 3.31 ± 0.053
QNLRKELLIYKKSQCKK [YIL149C/MLP2] | 1.75 ± 0.078 | 2.35 ± 0.086 | 1.84 ± 0.086 | 1.63 ± 0.068

Sequence | protein stability index (doa10∆) | protein stability index (pdr5∆) | protein stability index (san1∆) | protein stability index (ubr1∆)
FLQGESPFSITFSVYHE [YMR129W/POM152] | 2.4 ± 0.073 | 2.08 ± 0.056 | 2.64 ± 0.047 | 2.36 ± 0.052
EEYRKQLDKKNELQKFQ [SMC1] | 3.44 ± 0.22 | 3.43 ± 0.12 | 2.82 ± 0.079 | 3.45 ± 0.1
WVKKFKWAGIKTRKFVF [CYT1] | 1.14 ± 0.12 | 1.51 ± 0.1 |  | 1.27 ± 0.074
EYYAKKRAFTKKVASAN [RPL16A] | 2.06 ± 0.081 | 1.7 ± 0.063 | 1.69 ± 0.11 | 1.57 ± 0.059
GPSAMRLSRCIRDNKLV [RPC82] | 1.94 ± 0.14 | 2.23 ± 0.13 | 1.58 ± 0.15 | 2.15 ± 0.099
SKTVKVLKTLIEKFEQV [RPN6] | 2.27 ± 0.2 | 3.25 ± 0.1 | 3.07 ± 0.11 | 2.83 ± 0.07
GTKSNEKKDSGSSKPAF [YJL041W/NSP1] | 3.21 ± 0.063 | 3.45 ± 0.072 | 3.42 ± 0.046 | 3.25 ± 0.069
DQEKKYGMSITETFEKP [RPB2] | 2.85 ± 0.11 | 3.4 ± 0.18 | 3.15 ± 0.096 | 3.5 ± 0.1
WDLQLQEKESQIQLAES [SMC4] | 3.05 ± 0.056 | 3.08 ± 0.076 | 2.82 ± 0.082 | 3.07 ± 0.06
KAASSTRIFQALPRKLR [POP1] | 2.64 ± 0.1 | 3.36 ± 0.15 | 2.76 ± 0.12 | 2.77 ± 0.086
IYYDSYIHLAYSRSVDK [SSN2] | 2.71 ± 0.13 | 2.78 ± 0.14 | 2.89 ± 0.11 | 3.26 ± 0.088
FEFNIRHSGKVYPITLS [UBP6] | 1.74 ± 0.11 | 2.51 ± 0.12 | 2.89 ± 0.089 | 1.22 ± 0.056
LEEITQYEHLIKGIREY [YDL116W/NUP84] | 2.35 ± 0.22 | 3.07 ± 0.13 | 2.94 ± 0.2 | 2.81 ± 0.14
NQILQTEIENYLLENNQ [YDL116W/NUP84] | 1.88 ± 0.052 | 2.24 ± 0.038 | 2.19 ± 0.066 | 2.13 ± 0.043
PKMKDEEYDDDDDNSNV [SNF2] | 3.4 ± 0.095 | 3.37 ± 0.16 | 3.23 ± 0.072 | 3.27 ± 0.15
VDVFAMPQSGTGVSVEA [RPN11] | 3.1 ± 0.1 | 3.41 ± 0.13 | 3.41 ± 0.076 | 3.05 ± 0.095
ESKSDDNSATSYYELET [RRI1] | 3.25 ± 0.084 | 3.24 ± 0.059 | 3.13 ± 0.067 | 3.19 ± 0.057
KFQETLLRQKIEQCKHP [ISW2] | 1.34 ± 0.068 | 1.47 ± 0.068 | 1.24 ± 0.13 | 1.21 ± 0.063
ELDILNKGWKLQSLNES [SRB4] |  | 3.05 ± 0.21 | 3 ± 0.18 | 
EEATTEEAGEEEAKEEV [RPS0A] | 2.69 ± 0.11 | 2.78 ± 0.17 |  | 
TLILIQNPENLLSEKIL [SIR3] | 2.98 ± 0.062 | 2.88 ± 0.07 | 2.87 ± 0.046 | 3.16 ± 0.06
LHEKYLTEGGSILEEKI [SMC1] | 3.02 ± 0.077 | 3.24 ± 0.1 | 3.01 ± 0.061 | 3.19 ± 0.094
HRDKNKMDMICRNINRK [DIS3] | 2.32 ± 0.081 | 2.99 ± 0.17 | 2.41 ± 0.083 | 3.33 ± 0.12
YKALRGMVSHKTARGKA [RPL16A] | 2.45 ± 0.08 | 2.1 ± 0.06 | 2.51 ± 0.096 | 1.84 ± 0.12
DKNKLLLLAAQIVSYCS [SSN2] | 1.97 ± 0.039 | 1.66 ± 0.038 | 2.05 ± 0.06 | 1.74 ± 0.037
CTFSMEPYHFISNYNTK [SRB8] | 1.99 ± 0.083 | 2.09 ± 0.05 | 1.5 ± 0.079 | 1.71 ± 0.052

From the supplement of paper PMC9732359
